Source: publication PMC10897196, “Structure–activity characteristics of phenylalanine analogs selectively transported by L-type amino acid transporter 1 (LAT1)” (Scientific Reports, 2024)
Values joined by “and” are separate entries in the source; they are usually repeats but may differ in a detail not shown here. Identical values can stand only once.

Key:
Assay in all cases: Efflux of pre-loaded L-[14C]alanine from HEK293-hLAT2 cells induced by extracellular compounds
Assay type in all cases: cell-based, human
Details in all cases: other: LAT2, L-[14C]alanine efflux, 1 min; mean ± S.E.M., n = 3; 37.0 °C
[1] = substrate: N[C@@H](Cc1ccccc1I)C(=O)O
Method: (§1) We evaluated the efflux of pre-loaded L-[^14C]leucine from LAT1 and pre-loaded L-[^14C]alanine from LAT2 induced by extracellularly applied compounds.
(§2) Efflux experiments were performed as described previously. Cells cultured 48 h were pre-loaded with 5 μM L-[^14C]leucine or L-[^14C]alanine for 10 min at 37 °C. The cells were then washed, and the efflux was induced by incubating cells for 1 min in either the absence or presence of non-radiolabeled test compounds at indicated concentrations. The efflux time of 1 min fell within the linear range of time-dependent substrate efflux mediated by LAT1 and LAT2 (Supplementary Fig. S2). Following incubation, the medium was collected and radioactivity was measured in both the medium and the cells. Efflux was quantified as the percentage of radioactivity released into the medium, calculated using the formula: radioactivity of medium/(radioactivity of medium + radioactivity of cells) × 100%.
(§3) The kinetic parameters for the efflux of L-[^14C]leucine or L-[^14C]alanine induced by various concentrations of extracellularly-applied test compounds were analyzed. The baseline efflux values—those obtained in the absence of test compounds—were subtracted from the values measured in the presence of the compounds. The resultant data were fitted to Michaelis–Menten kinetics to determine the Km and Vmax by nonlinear regression analysis using “enzyme kinetics-velocity as a function of substrate” module within GraphPad Prism software.

[2] = substrate: C[C@](N)(Cc1ccccc1)C(=O)O
Method: as §1, §2, §3

[3] = substrate: N[C@@H](Cc1ccccc1)C(=O)O
Method: as §1, §2, §3

[4] = substrate: N[C@]1(C(=O)O)CCc2ccccc2C1
Method: as §1, §2, §3

B1: human LAT2 (Homo sapiens) (protein)
chain: MEEGARHRNNTEKKHPGGGESDASPEAGSGGGGVALKKEIGLVSACGIIVGNIIGSGIFVSPKGVLENAGSVGLALIVWIVTGFITVVGALCYAELGVTIPKSGGDYSYVKDIFGGLAGFLRLWIAVLVIYPTNQAVIALTFSNYVLQPLFPTCFPPESGLRLLAAICLLLLTWVNCSSVRWATRVQDIFTAGKLLALALIIIMGIVQICKGEYFWLEPKNAFENFQEPDIGLVALAFLQGSFAYGGWNFLNYVTEELVDPYKNLPRAIFISIPLVTFVYVFANVAYVTAMSPQELLASNAVAVTFGEKLLGVMAWIMPISVALSTFGGVNGSLFTSSRLFFAGAREGHLPSVLAMIHVKRCTPIPALLFTCISTLLMLVTSDMYTLINYVGFINYLFYGVTVAGQIVLRWKKPDIPRPIKINLLFPIIYLLFWAFLLVFSLWSEPVVCGIGLAIMLTGVPVYFLGVYWQHKPKCFSDFIELLTLVSQKMCVVVYPEVERGSGTEEANEDMEEQQQPMYQPTPTKDKDVAGQPQP
notes: expressed in transfected cells
Protein B1 has a Km [1] of 35.34 ± 1.95 µM, a Km [2] of 246.49 ± 23.00 µM and a Km [3] of 25.21 ± 2.43 µM. The Km [4] was 30 µM and 29.96 ± 4.00 µM.
